Test [1] concerns the target interaction between Fc conjugated LRRC4B (amino acids 453-576) protein fragment and FAM19A5 protein (Homo sapiens, UniProt Q7Z5A7). Description: Competitive inhibition assay of chemical compounds, plate coated with Fc conjugated LRRC4B fragment (453-576). It is filed as binding. To be noted: for effect of increasing concentration on LRRC4B-FAM19A5 interaction (in words): increasing concentrations. The procedure: In particular, the following compounds were produced: (1) KB734, (2) KB761, (3) KB763, (4) KB1157, (5) KB1161, (6) KB1542, (7) KB1543, (8) KB2256, (9) KB2258, (10) KB2310, (11) KB2357, (12) KB2718, (13) KB2719, (14) KB3111, (15) KB3112, (16) KB3220, (17) KB3201, (18) KB3250, and (19) KB3251. Then, the ability of the above chemical compounds to inhibit the binding of LRRC4 protein family members to FAM19A5 protein was assessed using a competitive inhibition assay. Briefly, ELISA plates were coated with 100 nM of a Fc conjugated LRRC4B fragment (amino acids 453-576 of SEQ ID NO: 2; SEQ ID NO: 7). Then, recombinant FAM19A5 protein (1 ng/mL) was added to the plates in combination with one of the above chemical compounds (100 μM). Recombinant FAM19A5 protein alone (“CTRL”) or in combination with DMSO was used as control. The plates were incubated at 37° C. and then, the amount of FAM19A5 protein bound to the coated LRRC4B protein fragment was assessed using HRP-conjugated anti-FAM19A5 (1-65) antibody.
Next, to assess whether increasing the concentration of the chemical compounds could improve the inhibitory effect, increasing concentrations of KB734, KB2310, and KB2357 compounds were subjected to the same competitive inhibition assay described above.
To further assess the inhibitory effect of the KB2357 chemical compound on FAM19A5 protein and members of the LRRC4 protein family, the following derivatives of the KB2357 compound were synthesized as described earlier: (1) KB2304, (2) KB2305, (3) KB2308, (4) KB2309, (5) KB2314, (6) KB2315, (7) KB2324, (8) KB2325, (9) KB2328, (10) KB2329, (11) KB2336, (12) KB2337, (13) KB2350, (14) KB2356, (15) KB2358, (16) KB2359, (17) KB2369, (18) KB2372, and (19) KB2399. The derivative compounds were also tested in the competitive inhibition assay as described above.

Test [2] has as its target hFc-fused hLRRC4B and FAM19A5 complex formation (Homo sapiens, UniProt Q7Z5A7). Briefly: Competitive inhibition assay (IC50), plate coated with LRRC4B(453-576, TT/TT)-hFc. It is filed as binding. The note with it: for IC50: Table 14, LRRC4B(453-576, TT/TT)-hFc 100 nM coat, peptide 0.03-1000 nM, read-out: IC50 (nM), Inhibition on Complex Formulation between human LRRC4B protein and recombinant FAM19A5 protein (1 ng/mL). As to the method:
The in silico analysis provided in Example 9 highlighted that certain T12 and L13 double mutants might be important in improving the binding affinity of the polypeptides of the present disclosure to the FAM19A5 protein. Therefore, the ability of both the wild-type FB-21 peptide (which is the same as the FB-20 peptide described herein except that the FB-21 peptide additionally contains an alanine at the C-terminus) and several FB-21 mutants were tested for their inhibitor effect on hFc-fused hLRRC4B and FAM19A5 complex formation. Briefly, plate was coated with 100 nM of LRRC4B(453-576, TT/TT)-hFc and then 1 ng/ml of rFAM19A5 was incubated at 37° C. in the presence of increasing concentrations of the different FB-21 peptide fragments (0.03, 0.1, 0.3, 1, 3, 10, 30, 100, 300 and 1000 nM). The LRRC4B-bound FAM19A5 levels were measured using HRP-conjugated 1-65 antibody.

Test [3] addresses interaction between His-TEV LRRC4B and rFAM19A5 (Homo sapiens, UniProt Q7Z5A7). Briefly: Competitive inhibition assay (IC50), plate coated with His-TEV LRRC4B. It is filed as binding. The note with it: Table 15; His-TEV LRRC4B 100 nM coat; peptide 0.3-10000 nM; read-out: IC50 (nM), Inhibition on Complex Formulation between LRRC4B protein and recombinant FAM19A5 protein (1 ng/ml). The procedure:
To further assess the inhibitory effect of the FB-21 mutants, the ability of additional FB-21 mutants described in Example 9 were tested for their ability to inhibit the interaction between FAM19A5 protein and LRRC4B protein. Briefly, plates were coated with 100 nM of His-TEV LRRC4B and then 1 ng/mL of rFAM19A5 was incubated at 37° C. in the presence of increasing concentrations of the FB-21 peptide fragments (0.3, 1, 3, 10, 30, 100, 300, 1000, 3000 and 10000 nM). The LRRC4B-bound FAM19A5 levels were measured using HRP-conjugated 1-65 SS01 antibody. As shown in FIG. 22B (see Table 15 for IC50), most (if not all) of the FB-21 mutants had improved ability in inhibiting the interaction between LRRC4B and recombinant FAM19A5 protein.
Next, to assess whether other properties of the polypeptides described herein can be improved (e.g., solubility, prevention of degradation from protease and peptidase, and in vivo administration), the following additional FB-21 peptide mutants were constructed and tested for their ability to inhibit the interaction between FAM19A5 protein and LRRC4B: (1) d-form FB-21 peptide (“dFB-21”), (2) d-form FB-21 peptide with juxta-membrane (JM) sequence (“dFB-JM-31”), (3) d-form FB-21 peptide with BBB penetrating sequence at each end of the sequence (“dFB-BBB-39”), and (4) d-form FB-21 mutant peptide with DY replacement and additional JM sequence (“dFB-DY-JM31”). The sequence for d-form FB-21 peptide is set forth in SEQ ID NO: 153 (nYTYFTTVTVETLETQPGEEa; wherein the lowercase amino acids represent D-form of the amino acid, and the uppercase amino acids represent L-form of the amino acid). The sequence for dFB-BBB-39 is set forth in SEQ ID NO: 154 (n[…]l; wherein the lowercase amino acids represent D-form of the amino acid, and the uppercase amino acids represent L-form of the amino acid). The sequence for dFB-JM-31 is set forth in SEQ ID NO: 155 (n[…]a; wherein the lowercase amino acids represent D-form of the amino acid, and the uppercase amino acids represent L-form of the amino acid). The sequence for dFB-DY-JM31 is set forth in SEQ ID NO: 156 (n[…]a; wherein the lowercase amino acids represent D-form of the amino acid, and the uppercase amino acids represent L-form of the amino acid). The overall experimental methods were the same as those described immediately above.

For test [4], the target named is T1, FAM19A5 protein (Homo sapiens, UniProt Q7Z5A7). Description: competitive inhibition ELISA, 20 nM peptide, rFAM19A5 5 ng/mL; competitor: coated LRRC4B(36-576)-hFc. (In general: In an ELISA, binding on a coated surface is turned into a signal by an enzyme label.)
Test [5] has as its target T1, FAM19A5 protein. Description: competitive inhibition ELISA, 20 nM peptide, rFAM19A5 1 ng/mL; competitor: coated LRRC4B(453-576)-hFc.
Test [6] concerns the target T1, FAM19A5 protein. Description: competitive inhibition ELISA; competitor: coated LRRC4B(36-576)-hFc.
For test [7], the target named is T1, FAM19A5 protein. Description: competitive inhibition ELISA; competitor: coated LRRC4B(453-576)-hFc.
The target in test [8] is T1, FAM19A5 protein. Briefly: competitive inhibition ELISA, 20 nM peptide, rFAM19A5 5 ng/mL; competitor: coated LRRC4B(36-576)-hFc. The source holds these as a separate data set.
For test [9], the target named is T1, FAM19A5 protein. Briefly: competitive inhibition ELISA, 20 nM peptide, rFAM19A5 1 ng/mL; competitor: coated LRRC4B(453-576)-hFc. The source holds these as a separate data set.

Ends that are not written are not given here.

interaction between Fc conjugated LRRC4B (amino acids 453-576) protein fragment and FAM19A5 protein, sequence (Q7Z5A7 44-132): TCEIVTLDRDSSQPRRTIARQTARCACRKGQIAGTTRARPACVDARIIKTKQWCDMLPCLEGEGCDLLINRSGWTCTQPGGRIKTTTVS

With `CCCCC[C@H](O)C#Cc1ccc(O)c(OC)c1` [KB2358, (S)-4-(3-Hydroxyoct-1-yn-1-yl)-2-methoxyphenol], the “effect of increasing concentration on LRRC4B-FAM19A5 interaction (in words)” value (“effect of increasing concentration” for short) in test [1] was “able to reduce the interaction in a dose-dependent manner”.

For “GYTYFTTVTVETLETQPGEEA [FB-21 (wild-type)]”, the IC50 was determined as 11.9 nM in test [2] and 138 nM in test [3].

As for `CCCCC[C@@H](O)C#Cc1ccc(O)c(OC)c1` [KB2357, (R)-4-(3-Hydroxyoct-1-yn-1-yl)-2-methoxyphenol], in [1] (100 μM compound, FAM19A5 1 ng/mL), the “reduction of interaction between FAM19A5 and the coated LRRC4B protein fragment compared to the controls” value is given as “about 10%”. Also, the “effect of increasing concentration” value in test [1] is “greater reduction in the interaction”.

`CCCCCC(O)/C=C\c1ccc(O)c(OC)c1` (stereo not shown) [KB2356, (Z)-4-(3-Hydroxyoct-1-en-1-yl)-2-methoxyphenol]: the “effect of increasing concentration” value in test [1] is on record as “able to reduce the interaction in a dose-dependent manner”.

Regarding GYTYFTTVTVEWYETQPGEEA [FB-21 (W12Y13)], the IC50 in test [2] worked out at 4.1 nM; in test [3] it was 46.7 nM. For the same molecule, the “increase in ability to dissociate the LRRC4B-FAM19A5 complex compared with wild-type FB-21” value in test [2] (from IC50 of Table 14) came to 2.9 folds.

As to NFSYFSTVTVETMEPSQDERTTR [FBC4C-23], the Inhibition rate (%) with FAM19A5 protein [4] is 65.7%; with FAM19A5 protein [5] it was 40.4%.

On to NYSFFTTVTVETTEISPEDTTRK [FBC4-23], for which the Inhibition rate (%) in the test with FAM19A5 protein [4] came out at 64.1%; in the test with FAM19A5 protein [5], 40.4%.

Take GYTYFTTVTVETLETQPGEE [FB-20]: the Inhibition rate (%) is 77% with FAM19A5 protein [6]; 63.2% with FAM19A5 protein [7]; 77% with FAM19A5 protein [4]; 84.3% with FAM19A5 protein [8]; 63.2% with FAM19A5 protein [5]; 62% with FAM19A5 protein [9].

These data come from patent US20240238445A1, “INHIBITORS AND USES THEREOF” (NEURACLE SCIENCE CO., LTD., priority 2021, published 2024).
